This series deals with Escherichia coli TOP10. The series can be described thus: shrunken log2 fold change of peptide-encoding DNA abundance (4.5 h post-induction vs induction); higher = less antimicrobial activity (less host growth inhibition). Conditions: time post-induction: 4.5 h; library: site-saturation at positions 5, 18, 19, 20.
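Note: peptides expressed intracellularly from a pBAD plasmid library in pooled LB shake-flask culture, induced with 0.3% L-arabinose, DNA abundance read by NGS, three biological replicates, DESeq2 with apeglm shrinkage.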

Take RRIRRRPPRLPRPRPRPRIMPRP: the “shrunken log2 fold change” value is 0.0517.

With RRIRSRPPRLPRPRPRPSKTPRP, the “shrunken log2 fold change” value was -0.159.

As for RRIRQRPPRLPRPRPRPFHFPRP, the “shrunken log2 fold change” value is -0.0115.

Take RRIRYRPPRLPRPRPRPYSRPRP: the “shrunken log2 fold change” value was -0.01.

Take RRIRERPPRLPRPRPRPKGQPRP: the “shrunken log2 fold change” value was 0.132.

Take RRIRWRPPRLPRPRPRPYTAPRP: the “shrunken log2 fold change” value is -0.611.

In the case of RRIRDRPPRLPRPRPRPSCCPRP, the “shrunken log2 fold change” value came to 1.57.

For the sequence RRIRYRPPRLPRPRPRPVCAPRP, the “shrunken log2 fold change” value was -0.232.

For the sequence RRIRSRPPRLPRPRPRPSWIPRP, the “shrunken log2 fold change” value is -0.363.

With RRIRMRPPRLPRPRPRPSQLPRP, the “shrunken log2 fold change” value was -0.0454.

For RRIRHRPPRLPRPRPRPTIFPRP, the “shrunken log2 fold change” value was -0.0675.

For RRIRYRPPRLPRPRPRPSNSPRP, the “shrunken log2 fold change” value was -1.15.

Turning to RRIRQRPPRLPRPRPRPYEKPRP, the “shrunken log2 fold change” value was -0.0946.

With RRIRARPPRLPRPRPRPSWLPRP, the “shrunken log2 fold change” value came out at 0.0254.

On to RRIRCRPPRLPRPRPRPCATPRP, for which the “shrunken log2 fold change” value amounted to 0.16.

For the sequence RRIRYRPPRLPRPRPRPWTKPRP, the “shrunken log2 fold change” value was -0.319.

As to RRIRCRPPRLPRPRPRPPSWPRP, the “shrunken log2 fold change” value was found to be 0.194.

In the case of RRIRYRPPRLPRPRPRPHLGPRP, the “shrunken log2 fold change” value stood at 0.0406.

As for RRIRPRPPRLPRPRPRPFPGPRP, the “shrunken log2 fold change” value was -0.226.

Take RRIRSRPPRLPRPRPRPIWPPRP: the “shrunken log2 fold change” value amounted to 0.0426.

With RRIRCRPPRLPRPRPRPCSWPRP, the “shrunken log2 fold change” value amounted to 0.0276.

As for RRIRNRPPRLPRPRPRPQKTPRP, the “shrunken log2 fold change” value is -0.0033.

Turning to RRIRGRPPRLPRPRPRPKEFPRP, the “shrunken log2 fold change” value is -0.0157.

With RRIRHRPPRLPRPRPRPADCPRP, the “shrunken log2 fold change” value was -0.395.

RRIRHRPPRLPRPRPRPMGLPRP: the “shrunken log2 fold change” value amounted to 0.00622.

Consider RRIRCRPPRLPRPRPRPRFEPRP, for which the “shrunken log2 fold change” value is 0.115.

Consider RRIRGRPPRLPRPRPRPMTLPRP, for which the “shrunken log2 fold change” value was determined as 0.509.

RRIRPRPPRLPRPRPRPCRGPRP: the “shrunken log2 fold change” value is -0.322.

As to RRIRKRPPRLPRPRPRPGSLPRP, the “shrunken log2 fold change” value is -0.0469.

In the case of RRIRKRPPRLPRPRPRPKRMPRP, the “shrunken log2 fold change” value was determined as 0.296.

On to RRIRHRPPRLPRPRPRPFLKPRP, for which the “shrunken log2 fold change” value was -0.0136.

With RRIRMRPPRLPRPRPRPQAIPRP, the “shrunken log2 fold change” value was -0.00149.

Regarding RRIRVRPPRLPRPRPRPSRDPRP, the “shrunken log2 fold change” value was -0.0563.

Turning to RRIRWRPPRLPRPRPRPILMPRP, the “shrunken log2 fold change” value was -0.286.

On to RRIRMRPPRLPRPRPRPTTVPRP, for which the “shrunken log2 fold change” value stood at 0.376.

On to RRIRRRPPRLPRPRPRPPMRPRP, for which the “shrunken log2 fold change” value was determined as 1.03.

On to RRIRTRPPRLPRPRPRPNCRPRP, for which the “shrunken log2 fold change” value is -0.00739.

Consider RRIRFRPPRLPRPRPRPHTVPRP, for which the “shrunken log2 fold change” value stood at 0.0365.

Consider RRIRTRPPRLPRPRPRPVGQPRP, for which the “shrunken log2 fold change” value turned out to be 0.00905.

As to RRIRGRPPRLPRPRPRPDDLPRP, the “shrunken log2 fold change” value came to 0.0487.

For RRIRFRPPRLPRPRPRPANMPRP, the “shrunken log2 fold change” value was 0.321.

As to RRIRTRPPRLPRPRPRPEKGPRP, the “shrunken log2 fold change” value was -0.0355.

Regarding RRIRPRPPRLPRPRPRPISKPRP, the “shrunken log2 fold change” value is -0.306.

Consider RRIRSRPPRLPRPRPRPFKQPRP, for which the “shrunken log2 fold change” value is -0.468.

Regarding RRIRARPPRLPRPRPRPRCYPRP, the “shrunken log2 fold change” value was determined as 0.0779.

RRIRIRPPRLPRPRPRPYFFPRP: the “shrunken log2 fold change” value was -0.875.

RRIRERPPRLPRPRPRPCGVPRP: the “shrunken log2 fold change” value stood at 0.0484.

For RRIRIRPPRLPRPRPRPSEIPRP, the “shrunken log2 fold change” value was 0.0838.

With RRIRLRPPRLPRPRPRPWTDPRP, the “shrunken log2 fold change” value is -0.279.

For the sequence RRIRERPPRLPRPRPRPWHLPRP, the “shrunken log2 fold change” value was -0.349.

Turning to RRIRFRPPRLPRPRPRPNISPRP, the “shrunken log2 fold change” value is -0.503.

Take RRIRERPPRLPRPRPRPKHCPRP: the “shrunken log2 fold change” value was determined as 0.0411.

For RRIRGRPPRLPRPRPRPPEFPRP, the “shrunken log2 fold change” value is 1.01.

On to RRIRIRPPRLPRPRPRPIQLPRP, for which the “shrunken log2 fold change” value is -0.058.

Take RRIRHRPPRLPRPRPRPSMMPRP: the “shrunken log2 fold change” value is -0.407.

With RRIRYRPPRLPRPRPRPWMWPRP, the “shrunken log2 fold change” value turned out to be 0.0261.

Regarding RRIRWRPPRLPRPRPRPNEPPRP, the “shrunken log2 fold change” value was -0.000964.

On to RRIRERPPRLPRPRPRPTKKPRP, for which the “shrunken log2 fold change” value amounted to 0.0853.

RRIRERPPRLPRPRPRPLVHPRP: the “shrunken log2 fold change” value was -0.158.

Turning to RRIRLRPPRLPRPRPRPWFDPRP, the “shrunken log2 fold change” value is -0.365.

Turning to RRIRHRPPRLPRPRPRPQKRPRP, the “shrunken log2 fold change” value is -0.225.

With RRIRRRPPRLPRPRPRPDEKPRP, the “shrunken log2 fold change” value was determined as 0.135.

Turning to RRIRMRPPRLPRPRPRPQFPPRP, the “shrunken log2 fold change” value was determined as 0.16.

In the case of RRIRMRPPRLPRPRPRPFKMPRP, the “shrunken log2 fold change” value was determined as 0.0516.

Turning to RRIRMRPPRLPRPRPRPRMTPRP, the “shrunken log2 fold change” value stood at 1.84.

RRIRQRPPRLPRPRPRPICVPRP: the “shrunken log2 fold change” value was -0.307.

Turning to RRIRWRPPRLPRPRPRPYTVPRP, the “shrunken log2 fold change” value is -0.29.

As to RRIRFRPPRLPRPRPRPKVLPRP, the “shrunken log2 fold change” value was -0.128.

In the case of RRIRHRPPRLPRPRPRPFCWPRP, the “shrunken log2 fold change” value is 0.252.

For RRIRVRPPRLPRPRPRPMARPRP, the “shrunken log2 fold change” value stood at 0.0955.

As to RRIRTRPPRLPRPRPRPFSLPRP, the “shrunken log2 fold change” value was -0.0845.

Consider RRIRVRPPRLPRPRPRPKPQPRP, for which the “shrunken log2 fold change” value came to 0.719.

With RRIRFRPPRLPRPRPRPAQLPRP, the “shrunken log2 fold change” value is 0.36.

Consider RRIRRRPPRLPRPRPRPESEPRP, for which the “shrunken log2 fold change” value turned out to be 0.0778.

With RRIRGRPPRLPRPRPRPDYPPRP, the “shrunken log2 fold change” value is 0.121.

On to RRIRVRPPRLPRPRPRPDRHPRP, for which the “shrunken log2 fold change” value is -0.0428.

Regarding RRIRDRPPRLPRPRPRPSLFPRP, the “shrunken log2 fold change” value was found to be 0.205.

Regarding RRIRKRPPRLPRPRPRPCHGPRP, the “shrunken log2 fold change” value stood at 0.0847.

With RRIRYRPPRLPRPRPRPWTNPRP, the “shrunken log2 fold change” value was -0.00804.

Take RRIRQRPPRLPRPRPRPRQCPRP: the “shrunken log2 fold change” value amounted to 0.152.

On to RRIRFRPPRLPRPRPRPNFQPRP, for which the “shrunken log2 fold change” value is -0.272.

On to RRIRYRPPRLPRPRPRPWHRPRP, for which the “shrunken log2 fold change” value was -0.172.

For the sequence RRIRMRPPRLPRPRPRPAVRPRP, the “shrunken log2 fold change” value was determined as 0.835.

With RRIRMRPPRLPRPRPRPNFIPRP, the “shrunken log2 fold change” value is -0.371.

RRIRPRPPRLPRPRPRPKAEPRP: the “shrunken log2 fold change” value worked out at 0.279.

On to RRIRDRPPRLPRPRPRPGATPRP, for which the “shrunken log2 fold change” value amounted to 1.01.

As for RRIRERPPRLPRPRPRPGNYPRP, the “shrunken log2 fold change” value was -0.264.

On to RRIRHRPPRLPRPRPRPNFTPRP, for which the “shrunken log2 fold change” value is -0.104.

As for RRIRQRPPRLPRPRPRPTLEPRP, the “shrunken log2 fold change” value was determined as 0.0818.

With RRIRRRPPRLPRPRPRPMYKPRP, the “shrunken log2 fold change” value is -0.0524.

RRIRARPPRLPRPRPRPRKHPRP: the “shrunken log2 fold change” value worked out at 0.146.
